Data as given in US20230235058A1 (OXFORD UNIVERSITY INNOVATION, published 2023).

T1: human FcγR2A 131R (human, UniProt P12318 34-217)
T1 construct: extracellular domain
T1 sequence (looked up): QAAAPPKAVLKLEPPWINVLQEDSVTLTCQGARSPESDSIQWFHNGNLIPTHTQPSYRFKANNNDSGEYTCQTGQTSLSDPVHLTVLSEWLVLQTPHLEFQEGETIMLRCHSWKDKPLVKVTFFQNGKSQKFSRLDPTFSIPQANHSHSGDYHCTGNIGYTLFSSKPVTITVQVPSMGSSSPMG

T2: human FcγR2A 131H (human, UniProt P12318 34-217)
T2 construct: extracellular domain
T2 sequence (looked up): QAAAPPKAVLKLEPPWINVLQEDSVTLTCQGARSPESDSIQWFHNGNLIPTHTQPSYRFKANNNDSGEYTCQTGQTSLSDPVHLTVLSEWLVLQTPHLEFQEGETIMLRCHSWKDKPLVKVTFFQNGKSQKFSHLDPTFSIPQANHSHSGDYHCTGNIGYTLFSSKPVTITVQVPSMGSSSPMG

T3: human FcγR2B (human, UniProt P31994 43-217)
T3 construct: extracellular domain; also called hFcγR2B; CD32B
T3 sequence (looked up): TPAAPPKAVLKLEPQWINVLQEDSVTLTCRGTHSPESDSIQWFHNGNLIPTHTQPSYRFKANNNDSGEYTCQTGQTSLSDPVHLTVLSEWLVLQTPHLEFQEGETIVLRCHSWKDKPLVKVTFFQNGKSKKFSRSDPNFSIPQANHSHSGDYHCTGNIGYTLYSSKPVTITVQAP

T4: soluble cynomolgus macaque BTLA extracellular domain (BTLA K31-R151) (cynomolgus macaque)
T4 construct: also called cynomolgus BTLA; cyno BTLA
T4 chain: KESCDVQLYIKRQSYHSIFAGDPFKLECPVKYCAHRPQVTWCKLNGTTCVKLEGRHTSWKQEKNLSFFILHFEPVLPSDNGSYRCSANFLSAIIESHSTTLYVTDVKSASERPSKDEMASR


Assays:
[1] = molecular target: T1, human FcγR2A 131R; experiment: SPR 37C, steady state;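 also: fc variants captured on chip-bound human BTLA ectodomain, recombinant FcγR ectodomains injected as analyte at varied concentrations, double-referenced equilibrium binding fitted to Langmuir model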
Experimental: (§1) For the low affinity FcγRs (FcγR2A, FcγR2B, FcγR3A and FcγR3B) the interactions were assessed by surface plasmon resonance with the recombinantly expressed FcRs (extracellular domains only) as analyte. Briefly, recombinant human BTLA extracellular domain (BTLA^K31-R151) was covalently immobilised to both flow cells of all channels of a CMS Series S sensor chip using the GE Healthcare Amine coupling kit. The 2.8.6 Fc variant to be assessed was then captured (approx. 500-1000 response units) in flow cell 2 of each channel. Steady state affinity analysis was then performed by injecting varying concentrations of FcR in multiple cycles and measuring equilibrium binding. Double referencing was used (subtracting the signal in the reference Fc1 and also subtracting the signal from a blank zero concentration injection). KDs were calculated from the Langmuir curves (plotting equilibrium binding against analyte concentration to determine the concentration required for half maximal binding).

[2] = molecular target: T2, human FcγR2A 131H; experiment: SPR 37C, steady state;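 also: fc variants captured on chip-bound human BTLA ectodomain, recombinant FcγR ectodomains injected as analyte at varied concentrations, double-referenced equilibrium binding fitted to Langmuir model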
Experimental: as §1

[3] = molecular target: T3, human FcγR2B; experiment: SPR 37C, steady state;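 also: fc variants captured on chip-bound human BTLA ectodomain, recombinant FcγR ectodomains injected as analyte at varied concentrations, double-referenced equilibrium binding fitted to Langmuir model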
Experimental: as §1

[4] = molecular target: T5, human FcγR3A 158F (human, UniProt P08637 17-208); experiment: SPR 37C, steady state;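 also: fc variants captured on chip-bound human BTLA ectodomain, recombinant FcγR ectodomains injected as analyte at varied concentrations, double-referenced equilibrium binding fitted to Langmuir model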
T5 construct: extracellular domain
Experimental: as §1

[5] = molecular target: T6, human FcγR3A 158V (human, UniProt P08637 17-208); experiment: SPR 37C, steady state
T6 construct: extracellular domain
Experimental: as §1

[6] = molecular target: T7, human FcγR3B (human, UniProt O75015 17-200, limits assumed); experiment: SPR 37C, steady state
T7 construct: extracellular domain; also called CD16B
Experimental: as §1

[7] = molecular target: T8, human FcRn (human, UniProt P55899 24-297; P61769 21-119, limits assumed, biotinylated); experiment: SPR, pH6.0
T8 construct: bought; also called FcRn pH6
Experimental: For the high affinity FcR interactions (FcγR1A, and also FcRn assessed at pH6.0) the binding was assessed in a kinetic analysis with antibody as analyte. […] Reference flow cell 1 was left empty in all channels. Purified antibody was then injected at a single concentration and on/off rates calculated by curve fitting on BiaEvaluation software. […] IgG Fc has two binding sites for FcRn so this assessment performed with FcRn immobilised at high density provides an avidity estimate for the interaction rather than a true KD.

[8] = molecular target: T9, human FcγR1A (human, UniProt P12314 16-288, biotinylated); experiment: SPR 37C, kinetic
T9 construct: bought; also called CD64A
Experimental: For the high affinity FcR interactions (FcγR1A, and also FcRn assessed at pH6.0) the binding was assessed in a kinetic analysis with antibody as analyte. […] Reference flow cell 1 was left empty in all channels. Purified antibody was then injected at a single concentration and on/off rates calculated by curve fitting on BiaEvaluation software.

[9] = molecular target: T10, full length human BTLA expressed on cells (human, UniProt Q7Z6A9 31-289); experiment: cell-based or functional assay
[10] = molecular target: chimeric BTLA of humanised-BTLA mice (human extracellular region, murine transmembrane and signaling … (human; mouse, UniProt Q7TSA3 184-306, limits assumed); experiment: cell-based or functional assay
[11] = molecular target: T11, monomeric soluble human BTLA extracellular domain (BTLA K31-R151) (human, UniProt Q7Z6A9 31-151); experiment: SPR 37C, mAb captured, BTLA ECD analyte;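 also: Anti-BTLA mouse antibodies captured on a sensor chip via polyclonal anti-mouse IgG, isotype control antibody in reference channel, rates fitted after reference and blank subtraction to derive Kd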
T11 construct: also called hBTLA; monomeric BTLA
Experimental: (§2) Mouse antibody capture kit (GE Healthcare) was used to coat a Series S CMS Sensor Chip (GE Healthcare) with polyclonal anti-mouse IgG. Anti-BTLA antibody was then captured onto the biosensor surface and a negative control antibody (clone Mopc21; Biolegend) captured in the reference channel. […] Association and dissociation rates were fitted using BiaEvaluation Software (GE Healthcare) after reference and blank subtractions, and dissociation constants were calculated (FIG. 1b).

[12] = molecular target: T4, soluble cynomolgus macaque BTLA …; experiment: SPR 37C, mAb captured, BTLA ECD analyte;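 also: Anti-BTLA mouse antibodies captured on a sensor chip via polyclonal anti-mouse IgG, isotype control antibody in reference channel, rates fitted after reference and blank subtraction to derive Kd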
Experimental: as §2

[13] = molecular target: T10, full length human BTLA expressed on …; experiment: cell-based or functional assay; remark: listed apart in the source
For AntiCD3/CD28 (CD4 T cell proliferation) repeat 1 in this document: test concentration or dose not given here.
For AntiCD3/CD28 (CD4 T cell proliferation) repeat 2 in this document: test concentration or dose not given here.
For AntiCD3/CD28 (CD69+ CD4 T cells) repeat 1 in this document: test concentration or dose not given here.
For T cell reporter (NFκB signaling) in this document: test concentration or dose not given here.

T5 sequence (P08637 17-208): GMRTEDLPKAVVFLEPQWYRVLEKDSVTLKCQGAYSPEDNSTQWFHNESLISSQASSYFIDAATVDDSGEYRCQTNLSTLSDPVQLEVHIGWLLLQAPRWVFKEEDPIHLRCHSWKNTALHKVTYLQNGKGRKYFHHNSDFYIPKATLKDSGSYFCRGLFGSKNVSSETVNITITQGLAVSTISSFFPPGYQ
Chain of chimeric BTLA of humanised-BTLA mice (human extracellular region, murine transmembrane and signaling … (Q7TSA3 other isoform, or with tags, fused parts or gaps mutant limits assumed): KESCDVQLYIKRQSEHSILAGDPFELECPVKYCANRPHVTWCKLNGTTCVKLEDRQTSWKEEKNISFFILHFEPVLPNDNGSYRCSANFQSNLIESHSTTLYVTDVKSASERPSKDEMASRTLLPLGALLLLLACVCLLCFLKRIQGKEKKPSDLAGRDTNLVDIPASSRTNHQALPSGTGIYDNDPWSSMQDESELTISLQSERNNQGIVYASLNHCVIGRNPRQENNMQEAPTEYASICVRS
T6 sequence (P08637 17-208 F176V): as the sequence (P08637 17-208) above, with F160V counted along it
T7 sequence (O75015 17-200 limits assumed): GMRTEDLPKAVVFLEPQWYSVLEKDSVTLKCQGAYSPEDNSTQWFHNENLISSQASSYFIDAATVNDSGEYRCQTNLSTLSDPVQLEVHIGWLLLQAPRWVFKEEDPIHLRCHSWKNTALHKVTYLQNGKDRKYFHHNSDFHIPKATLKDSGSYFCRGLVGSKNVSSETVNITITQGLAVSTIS
T9 sequence (P12314 16-288): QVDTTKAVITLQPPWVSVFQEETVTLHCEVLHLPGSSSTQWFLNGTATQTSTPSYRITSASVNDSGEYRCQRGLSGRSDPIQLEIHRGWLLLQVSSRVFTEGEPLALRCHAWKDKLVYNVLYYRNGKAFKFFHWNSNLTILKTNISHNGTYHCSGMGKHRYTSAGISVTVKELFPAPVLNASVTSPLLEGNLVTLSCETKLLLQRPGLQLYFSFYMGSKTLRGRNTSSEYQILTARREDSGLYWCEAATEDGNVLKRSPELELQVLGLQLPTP

Binder | Kd [1] [µM] | Kd [2] [µM] | Kd [3] [µM] | T cell reporter (NFκB signaling) [9] [% inhibition] | AntiCD3/CD28 (CD4 T cell proliferation) repeat 1 [10] [% inhibition] | AntiCD3/CD28 (CD4 T cell proliferation) repeat 2 [10] [% inhibition] | AntiCD3/CD28 (CD69+ CD4 T cells) repeat 1 [10] [% inhibition] | AntiCD3/CD28 (CD69+ CD4 T cells) repeat 2 [10] [% inhibition] | MLR (CD4 T cell proliferation) repeat 1 [10] [% inhibition] | MLR (CD4 T cell proliferation) repeat 2 [10] [% inhibition] | Kd [11] [µM] | koff [11] [s⁻¹] | kon [11] [M⁻¹ s⁻¹] | Kd [12] [µM] | other results
6.2 (antibody, IgG1, V domains shown, mIgG1; also called clone 6.2; parent clone 6.2) VH: EVKLVESGGGLVKPGGSLKLSCAASGFTLSSYGMSWVRQIPEKRLEWVASIRSDGNTYYPDSVKGRFIISRDNARNILYLQMSSLRSEDTAMYYCTRGGYYGSSPYYWGQGTTLTVSS VL: DIVMSQSPSSLPVSVGEKISMTCKSSQSLLYSSNQKNYLAWYQQKPGQSPKLLIYWASTRDSGVPDRFIGSGSGTDFTLTINSVKAEDLAVYYCQQYYNYLTFGAGTKLELK |  |  |  | 26 | 19 | 21 | 53 | 61 | 31 | 35 | 0.0017 | 0.00107 | 630000 | 0.00971 | 
27G9 (antibody, IgG1, V domains shown, mIgG1) VH: EVQLQQSVAELVRPGASVKLSCTASGFNIKNTYMHWVKQRPEQGLEWIGRIDPANGNTKYAPKFQGKATITADTSSNTAYLQLSSLTSEDTAIYYCALTYYGSSQYYFDYWGQGTTLTVSS VL: not shown |  |  |  | 24 | 10 | 13 | 24 | 22 | 9 | 8 | 0.437 | 0.0838 | 192000 | 0.654 | 
26F3 (antibody, IgG1, V domains shown, mIgG1) VH: EVQLQQSVAELVRPGASVKLSCTASGFNIKNTYMYWVKQRPEQGLEWIGRIDPANGNTKYAPKFQGKATITADTSSNTAYLQLSSLTSEDTAIYYCALLYYGSSYDYFDYWGQGTTLTVSS VL: not shown |  |  |  | 20 | 4 | 0 | 19 | 17 | 9 | -5 | 2.2 | 2.02 | 921000 | 0.81 | 
hHVEM-mFc fusion protein (human HVEM extracellular domain fused to mouse IgG1 Fc) (Fc fusion) LPSCKEDEYPVGSECCPKCSPGYRVKEACGELTGTVCEPCPPGTYIAHLNGLSKCLQCQMCDPAMGLRASRNCSRTENAVCGCSPGHFCIVQDGDHCAACRAYATSSPGQRVQKGGTESQDTLCQNCPPGTFSPNGTLEECQHQTKCSWLVTKAGAGTSSSHLVPRGSGSKPSISTVPEVSSVFIFPPKPKDVLTITLTPKVTCVVVDISKDDPEVQFSWFVDDVEVHTAQTQPREEQFNSTFRSVSELPIMHQDWLNGKEFKCRVNSAAFPAPIEKTISKTKGRPKAPQVYTIPPPKEQMAKDKVSLTCMITDFFPEDITVEWQWNGQPAENYKNTQPIMDTDGSYFVYSKLNVQKSNWEAGNTFTCSVLHEGLHNHHTEKSLSHSPGKHHHHHH |  |  |  |  |  |  |  |  |  |  |  |  |  |  | inhibition of NFkB signal, IC50 [13]: 0.0096 µM; maximal inhibition of NFkB signal [13]: 27%

More lines, main results first:

Kd [1] [µM] | Kd [2] [µM] | Kd [3] [µM] | T cell reporter (NFκB signaling) [9] [% inhibition] | AntiCD3/CD28 (CD4 T cell proliferation) repeat 1 [10] [% inhibition] | AntiCD3/CD28 (CD4 T cell proliferation) repeat 2 [10] [% inhibition] | AntiCD3/CD28 (CD69+ CD4 T cells) repeat 1 [10] [% inhibition] | AntiCD3/CD28 (CD69+ CD4 T cells) repeat 2 [10] [% inhibition] | MLR (CD4 T cell proliferation) repeat 1 [10] [% inhibition] | MLR (CD4 T cell proliferation) repeat 2 [10] [% inhibition] | Kd [11] [µM] | koff [11] [s⁻¹] | kon [11] [M⁻¹ s⁻¹] | Kd [12] [µM] | Binder | other results
22 | 113 | 80.1 |  |  |  |  |  |  |  |  |  |  |  | humanised 2.8.6 hIgG1 D265A S267E A330R (antibody, Fc variant with the variable domains of humanised 2.8.6; copies: 2 + 2) heavy: QVTLKESGPALVKPTQTLTLTCTVSGFSLTTYGVHWIRQPPGKALEWLGVMWPGGRTSYNPSLKSRLTITKDNSKSQVVLTMTNMDPVDTATYYCVRGDYEYDYYAMDYWGQGTLVTVSSASTKGPSVFPLAPSSKSTSGGTAALGCLVKDYFPEPVTVSWNSGALTSGVHTFPAVLQSSGLYSLSSVVTVPSSSLGTQTYICNVNHKPSNTKVDKKVEPKSCDKTHTCPPCPAPELLGGPSVFLFPPKPKDTLMISRTPEVTCVVVAVEHEDPEVKFNWYVDGVEVHNAKTKPREEQYNSTYRVVSVLTVLHQDWLNGKEYKCKVSNKALPRPIEKTISKAKGQPREPQVYTLPPSREEMTKNQVSLTCLVKGFYPSDIAVEWESNGQPENNYKTTPPVLDSDGSFFLYSKLTVDKSRWQQGNVFSCSVMHEALHNHYTQKSLSLSPGK light: EIVLTQSPATLSLSPGERATLSCRASSSVSYMHWYQQKPGQAPRPLIYATSNRATGIPARFSGSGSGTDYTLTISSLEPEDFAVYYCHQWSSNPYTFGQGTKLEIKRTVAAPSVFIFPPSDEQLKSGTASVVCLLNNFYPREAKVQWKVDNALQSGNSQESVTEQDSKDSTYSLSSTLTLSKADYEKHKVYACEVTHQGLSSPVTKSFNRGEC | binding result [4]: no binding; binding result [5]: no binding; binding result [6]: no binding
79.3 | 82.2 | 131 |  |  |  |  |  |  |  |  |  |  |  | humanised 2.8.6 hIgG1 delta ac (antibody) chain 1: QVTLKESGPALVKPTQTLTLTCTVSGFSLTTYGVHWIRQPPGKALEWLGVMWPGGRTSYNPSLKSRLTITKDNSKSQVVLTMTNMDPVDTATYYCVRGDYEYDYYAMDYWGQGTLVTVSSASTKGPSVFPLAPSSKSTSGGTAALGCLVKDYFPEPVTVSWNSGALTSGVHTFPAVLQSSGLYSLSSVVTVPSSSLGTQTYICNVNHKPSNTKVDKKVEPKSCDKTHTCPPCPAPPVAGGPSVFLFPPKPKDTLMISRTPEVTCVVVDVSHEDPEVKFNWYVDGVEVHNAKTKPREEQYNSTYRVVSVLTVLHQDWLNGKEYKCKVSNKGLPSSIEKTISKAKGQPREPQVYTLPPSRDELTKNQVSLTCLVKGFYPSDIAVEWESNGQPENNYKTTPPVLDSDGSFFLYSKLTVDKSRWQQGNVFSCSVMHEALHNHYTQKSLSLSP chain 2: EIVLTQSPATLSLSPGERATLSCRASSSVSYMHWYQQKPGQAPRPLIYATSNRATGIPARFSGSGSGTDYTLTISSLEPEDFAVYYCHQWSSNPYTFGQGTKLEIKRTVAAPSVFIFPPSDEQLKSGTASVVCLLNNFYPREAKVQWKVDNALQSGNSQESVTEQDSKDSTYSLSSTLTLSKADYEKHKVYACEVTHQGLSSPVTKSFNRGEC | avidity (FcRn pH6) [7]: 11.9 nM; Kd [8]: 2.85 µM; Kd [4]: 344 µM; Kd [5]: 96.4 µM
9.56 | 4.86 | 82.5 |  |  |  |  |  |  |  |  |  |  |  | humanised 2.8.6 hIgG1 delta ab (antibody) chain 1: QVTLKESGPALVKPTQTLTLTCTVSGFSLTTYGVHWIRQPPGKALEWLGVMWPGGRTSYNPSLKSRLTITKDNSKSQVVLTMTNMDPVDTATYYCVRGDYEYDYYAMDYWGQGTLVTVSSASTKGPSVFPLAPSSKSTSGGTAALGCLVKDYFPEPVTVSWNSGALTSGVHTFPAVLQSSGLYSLSSVVTVPSSSLGTQTYICNVNHKPSNTKVDKKVEPKSCDKTHTCPPCPAPPVAGPSVFLFPPKPKDTLMISRTPEVTCVVVDVSHEDPEVKFNWYVDGVEVHNAKTKPREEQYNSTYRVVSVLTVLHQDWLNGKEYKCKVSNKGLPSSIEKTISKAKGQPREPQVYTLPPSRDELTKNQVSLTCLVKGFYPSDIAVEWESNGQPENNYKTTPPVLDSDGSFFLYSKLTVDKSRWQQGNVFSCSVMHEALHNHYTQKSLSLSP chain 2: EIVLTQSPATLSLSPGERATLSCRASSSVSYMHWYQQKPGQAPRPLIYATSNRATGIPARFSGSGSGTDYTLTISSLEPEDFAVYYCHQWSSNPYTFGQGTKLEIKRTVAAPSVFIFPPSDEQLKSGTASVVCLLNNFYPREAKVQWKVDNALQSGNSQESVTEQDSKDSTYSLSSTLTLSKADYEKHKVYACEVTHQGLSSPVTKSFNRGEC | avidity (FcRn pH6) [7]: 14.8 nM; Kd [4]: 722 µM; Kd [5]: 494 µM; Kd [6]: 2820 µM
